Measured values published in patent US20110301073.

What was measured:
[1] = system: TALE repeat framework A10L (SEQ 408) repeat 5: A10L (Xanthomonas sp. (engineered)); details: average of 3 experiments
[2] = system: TALE repeat framework A8L (SEQ 404) repeat 5: A8L (Xanthomonas sp. (engineered)); details: average of 3 experiments
[3] = system: TALE repeat framework A8T (SEQ 405) repeat 5: A8T (Xanthomonas sp. (engineered)); details: average of 3 experiments
[4] = system: TALE repeat framework E20A (SEQ 410) repeat 5: E20A (Xanthomonas sp. (engineered)); details: average of 3 experiments
[5] = system: TALE repeat framework I9A (SEQ 406) repeat 5: I9A (Xanthomonas sp. (engineered)); details: average of 3 experiments
[6] = system: TALE repeat framework I9V (SEQ 407) repeat 5: I9V (Xanthomonas sp. (engineered)); details: average of 3 experiments
[7] = system: TALE repeat framework L25A (SEQ 418) repeat 5: L25A (Xanthomonas sp. (engineered)); details: average of 3 experiments
[8] = system: TALE repeat framework L25Q (SEQ 419) repeat 5: L25Q (Xanthomonas sp. (engineered)); details: average of 3 experiments
[9] = system: TALE repeat framework L26A (SEQ 420) repeat 5: L26A (Xanthomonas sp. (engineered)); details: average of 3 experiments
[10] = system: TALE repeat framework P27A (SEQ 421) repeat 5: P27A (Xanthomonas sp. (engineered)); details: average of 3 experiments
[11] = system: TALE repeat framework P27L (SEQ 422) repeat 5: P27L (Xanthomonas sp. (engineered)); details: average of 3 experiments
[12] = system: TALE repeat framework Q23A (SEQ 413) repeat 5: Q23A (Xanthomonas sp. (engineered)); details: average of 3 experiments
[13] = system: TALE repeat framework Q23K (SEQ 415) repeat 5: Q23K (Xanthomonas sp. (engineered)); details: average of 3 experiments
[14] = system: TALE repeat framework Q23R (SEQ 414) repeat 5: Q23R (Xanthomonas sp. (engineered)); details: average of 3 experiments
[15] = system: TALE repeat framework Q23W (SEQ 416) repeat 5: Q23W (Xanthomonas sp. (engineered)); details: average of 3 experiments
[16] = system: TALE repeat framework Q5A (SEQ 75) repeat 5: Q5A (Xanthomonas sp. (engineered)); details: average of 3 experiments
[17] = system: TALE repeat framework R24A (SEQ 417) repeat 5: R24A (Xanthomonas sp. (engineered)); details: average of 3 experiments
[18] = system: TALE repeat framework S11A (SEQ 409) repeat 5: S11A (Xanthomonas sp. (engineered)); details: average of 3 experiments
[19] = system: TALE repeat framework T21A (SEQ 411) repeat 5: T21A (Xanthomonas sp. (engineered)); details: average of 3 experiments
[20] = system: TALE repeat framework T21A/Q23R/R24A (SEQ 423) repeat 5: T21A,Q23R,R24A (Xanthomonas sp. (engineered)); details: average of 3 experiments
[21] = system: TALE repeat framework T2S/P3T/D4A (SEQ 424) repeat 5: T2S,P3T,D4A (Xanthomonas sp. (engineered)); details: average of 3 experiments
[22] = system: TALE repeat framework T2S/P3T/D4A/T21A/Q23R/R24A (SEQ 425) repeat 5: T2S,P3T,D4A,T21A,Q23R,R24A (Xanthomonas sp. (engineered)); details: average of 3 experiments
[23] = system: TALE repeat framework V22A (SEQ 412) repeat 5: V22A (Xanthomonas sp. (engineered)); details: average of 3 experiments
[24] = system: TALE repeat framework V6A (SEQ 76) repeat 5: V6A (Xanthomonas sp. (engineered)); details: average of 3 experiments
[25] = system: TALE repeat framework V7A (SEQ 403) repeat 5: V7A (Xanthomonas sp. (engineered)); details: average of 3 experiments
[26] = system: TALE test backbone, repeat 5 RVD AA (synthetic (Xanthomonas TALE)); details: ELISA
[27] = system: TALE test backbone, repeat 5 RVD GG (synthetic (Xanthomonas TALE)); details: ELISA
[28] = system: TALE test backbone, repeat 5 RVD HA (synthetic (Xanthomonas TALE)); details: ELISA
[29] = system: TALE test backbone, repeat 5 RVD HG (synthetic (Xanthomonas TALE)); details: ELISA
[30] = system: TALE test backbone, repeat 5 RVD HI (synthetic (Xanthomonas TALE)); details: ELISA
[31] = system: TALE test backbone, repeat 5 RVD HN (synthetic (Xanthomonas TALE)); details: ELISA
[32] = system: TALE test backbone, repeat 5 RVD IP (synthetic (Xanthomonas TALE)); details: ELISA
[33] = system: TALE test backbone, repeat 5 RVD KD (Xanthomonas sp. (engineered)); details: RVD KD
[34] = system: TALE test backbone, repeat 5 RVD KI (synthetic (Xanthomonas TALE)); details: ELISA
[35] = system: TALE test backbone, repeat 5 RVD LA (synthetic (Xanthomonas TALE)); details: ELISA
[36] = system: TALE test backbone, repeat 5 RVD NA (synthetic (Xanthomonas TALE)); details: ELISA
[37] = system: TALE test backbone, repeat 5 RVD ND (Xanthomonas sp. (engineered)); details: RVD ND
[38] = system: TALE test backbone, repeat 5 RVD NI (Xanthomonas sp. (engineered)); details: RVD NI
[39] = system: TALE test backbone, repeat 5 RVD NN (Xanthomonas sp. (engineered)); details: RVD NN
[40] = system: TALE test backbone, repeat 5 RVD NS (synthetic (Xanthomonas TALE)); details: ELISA
[41] = system: TALE test backbone, repeat 5 RVD QA (synthetic (Xanthomonas TALE)); details: ELISA
[42] = system: TALE test backbone, repeat 5 RVD QG (synthetic (Xanthomonas TALE)); details: ELISA
[43] = system: TALE test backbone, repeat 5 RVD RA (synthetic (Xanthomonas TALE)); details: ELISA
[44] = system: TALE test backbone, repeat 5 RVD RG (synthetic (Xanthomonas TALE)); details: ELISA
[45] = system: TALE test backbone, repeat 5 RVD SG (synthetic (Xanthomonas TALE)); details: ELISA
[46] = system: TALE test backbone, repeat 5 RVD VG (synthetic (Xanthomonas TALE)); details: ELISA
[47] = system: TALE test backbone, repeat 5 RVD HD, standard framework (SEQ 333) (Xanthomonas sp. (engineered)); details: reference

Q: With “TTGACCATCCT (double strand) [CCA target]” as the sequence, how does the binding signal (normalized ELISA) [1] read?
A: 0.25

Q: What about the binding signal (normalized ELISA) [2] of the same sequence?
A: 0.73

Q: What about the binding signal (normalized ELISA) [3] of the same sequence?
A: 0.82

Q: And the binding signal (normalized ELISA) [4]?
A: 0.82

Q: And the binding signal (normalized ELISA) [5]?
A: 0.62

Q: What about the binding signal (normalized ELISA) [6] of the same sequence?
A: 0.76

Q: What about the binding signal (normalized ELISA) [7] of the same sequence?
A: 1.09

Q: What about the binding signal (normalized ELISA) [8] of the same sequence?
A: 0.9

Q: And the binding signal (normalized ELISA) [9]?
A: 1

Q: And the binding signal (normalized ELISA) [10]?
A: 1.21

Q: What about the binding signal (normalized ELISA) [11] of the same sequence?
A: 1.29

Q: And the binding signal (normalized ELISA) [12]?
A: 0.91

Q: And the binding signal (normalized ELISA) [13]?
A: 0.92

Q: What about the binding signal (normalized ELISA) [14] of the same sequence?
A: 0.97

Q: What about the binding signal (normalized ELISA) [15] of the same sequence?
A: 0.88

Q: And the binding signal (normalized ELISA) [16]?
A: 1.03

Q: What about the binding signal (normalized ELISA) [17] of the same sequence?
A: 0.92

Q: What about the binding signal (normalized ELISA) [18] of the same sequence?
A: 0.9

Q: And the binding signal (normalized ELISA) [19]?
A: 1.05

Q: What about the binding signal (normalized ELISA) [20] of the same sequence?
A: 1.42

Q: What about the binding signal (normalized ELISA) [21] of the same sequence?
A: 0

Q: What about the binding signal (normalized ELISA) [22] of the same sequence?
A: 0

Q: What about the binding signal (normalized ELISA) [23] of the same sequence?
A: 0.7

Q: And the binding signal (normalized ELISA) [24]?
A: 0.89

Q: What about the binding signal (normalized ELISA) [25] of the same sequence?
A: 0.26

Q: What about the binding signal (normalized ELISA) [26] of the same sequence?
A: 0.35

Q: And the binding signal (normalized ELISA) [27]?
A: 0.35

Q: What about the binding signal (normalized ELISA) [28] of the same sequence?
A: 0.53

Q: And the binding signal (normalized ELISA) [29]?
A: 0.11

Q: And the binding signal (normalized ELISA) [30]?
A: 0.1

Q: What about the binding signal (normalized ELISA) [31] of the same sequence?
A: 0

Q: And the binding signal (normalized ELISA) [32]?
A: 0.13

Q: What about the binding signal (normalized ELISA) [33] of the same sequence?
A: 0.61

Q: What about the binding signal (normalized ELISA) [34] of the same sequence?
A: 0.11

Q: And the binding signal (normalized ELISA) [35]?
A: 0.02

Q: And the binding signal (normalized ELISA) [36]?
A: 0.67

Q: And the binding signal (normalized ELISA) [37]?
A: 0.73

Q: And the binding signal (normalized ELISA) [38]?
A: 0.04

Q: What about the binding signal (normalized ELISA) [39] of the same sequence?
A: 0

Q: And the binding signal (normalized ELISA) [40]?
A: 0.26

Q: What about the binding signal (normalized ELISA) [41] of the same sequence?
A: 0.19

Q: And the binding signal (normalized ELISA) [42]?
A: 0.11

Q: And the binding signal (normalized ELISA) [43]?
A: 0.89

Q: And the binding signal (normalized ELISA) [44]?
A: 0.26

Q: What about the binding signal (normalized ELISA) [45] of the same sequence?
A: 0.23

Q: And the binding signal (normalized ELISA) [46]?
A: 0.02

Q: What about the binding signal (normalized ELISA) [47] of the same sequence?
A: 1
